Substrate in data set [1]: C[C@H](O)[C@@H](O)[C@@H](O)[C@H](O)C=O
The data set is described as follows: Effect of substrate concentration on velocity (Lineweaver-Burke, Km). The data set is classed as biochemical, pig. Conditions: other: 5 mM ATP and 5 mM Mg++; pH 8.0; 37.0 °C. How it is done:
(§1) Fucokinase activity was assayed by measuring the production of L-fucose-1-Pfrom [^3 H]L-fucose and ATP. The incubation mixtures contained the following components (final concentrations) in a total volume of 150 μl: L-fucose, 0.1 mM; ATP, 5 mM; MgSO4, 5 mM; Tris-HCl buffer, pH 8.0, 65 mM; and various amounts of enzyme at the different stages of purification. Incubations were at 37° C. for 10 minutes, and reactions were terminated by heating the reaction mixtures in a boiling water bath for 1 minute. The incubation mixtures were then applied to a column of DE-52 contained in a Pasteur pipette, and the column was washed with at least 5 column volumes of 10 mM (NH4)HCO3 to remove the unbound material. The [^3 H]fucose-1-P was then eluted with 500 mM (NH4)HCO3. Aliquots of the eluates were assayed for their radioactive content by subjecting a portion to scintillation counting.
(§2) The effect of concentration of the substrates, L-fucose and ATP, on the velocity of the reaction was determined. The Km for L-fucose was determined at saturating concentrations of the other substrates, i.e., 5 mM ATP and 5 mM Mg^++. […] A similar experiment was performed with ATP. In this case, the reactions were done in the presence of 5 mM Mg^++ and 100 μM L-fucose. The Km for ATP was estimated to be 600 μM (data not shown).

Substrate in data set [2]: Nc1ncnc2c1ncn2[C@@H]1O[C@H](COP(=O)(O)OP(=O)(O)OP(=O)(O)O)[C@@H](O)[C@H]1O
Described as above. The format is biochemical, pig. Conditions: other: 5 mM Mg++ and 100 μM L-fucose; pH 8.0; 37.0 °C. Here is the method: as §1, §2

Experimental findings from US6090605A, “Purified porcine kidney L-fucose kinase” (The Board of Trustees of the University of Arkansas, priority 1998, dated 2000) are described below.

What is called Km is the substrate concentration at which the rate is half of its maximum.

B1: pig kidney fucokinase (Sus scrofa) (protein)
chain: MEQPKGVDWTVIILTCQYKDSVEVFQKELEIRQKREQIPASTLLLAVEDPEVHVGSGGATLNALLVAAEHLSARAGFTVVTSDVLHSAWILILHMGRDFPFDDCGRAFTCLPVENPQAPVEAVVCNLDCLLDIMSHRLGPGSPPGVWVCSTDMLLSVPPNPGINWDGFRGARVIALPGSTAYARNHGVYLTDSQGFVLDIYYQGTEAEIQRCARPDGQVPLVSGIVFFSVETAEHLLATHVSPPLDACTYMGLDSGAQPVQLSLFFDILLCMARNVRREDFLVGRPPEMGRGDMETEGYLRGARAELWRELRDQPLTLAYVPDGSYNYMTNSASEFLHSLTFPGASGAQVVHSQVEEQQLLGAGSSVVSCLLEGPVQLGPGSVLQHCHLRGPIHIGTGCFVSGLDAAQSEALHSLELHDLVLQGHHLQLHGAPSRAFTLVGRLDSWERQGAGTYLNMSWSKFFQKTGIRDWDLWDPDTPPTERCLLSARLFPVLHPLRALGPQDMLWMLDPQEDGGKALRAWRDSWRLSWEQLQPCLDRAATLASRRDLFFRQALHKARHVLEARQDLSLRPLIRAAVREGCPGPLMATLDQVAAGAGDPGVAARALACVADILGCMAEGRGGLRSGPAANPEWVRPFSYLECGDLAGGVEALAQEREKWLSRPALLVRAARHYEGAGQILIRQAVMSAQHFVSTEPVELPAPGQWVVAECPARVDFSGGWSDTPPLAYEHGGAVLGLAVRVDGRRPIGARARRIPEPELWLAVGPQHDKMAMKIVCRSLDDLQDYCQPHAPGALLKAAFICAGILSVHSELSLSEQLLCTFGGGFELQTWSELPHGSGLGTSSILAGAALAALQRVAGRAVGTEALIHAVLHLEQVLTTGGGWQDQVGGLMPGIKVGRSRAQLPLKVEVEEITVPAGFVQKLNDHLLLVYTGKTRLARNLLQDVLRSWYARLPPVVQNAHNLVQQTEECAEAFRQGSLPRLGQCLTSYWEQKKLMAPGCEPLAVRHMMDALAPHVHGQSLAGAGGGGFLYLLTKEPRQKEALEAVLAKTEGLGNYSVHLVEVDTQGLSLQLLGTETSTGCSF
notes: L-Fucokinase was purified to apparent homogeneity from the cytosolic fraction of pig kidney; from tissue; host or cells: pig kidney, cytosolic fraction
Consider B1, for which the Km in data set [1] was 27 µM; in data set [2], 600 µM.
